Measurements: doi:10.1101/2023.08.08.552318

Target: Hemiselmis andersenii phycobiliprotein α subunit Haα^OB1 (open-braced form) (Hemiselmis andersenii)
Test: crystal structure

Question: For “Hemiselmis andersenii phycobiliprotein α subunit Haα^OB1 (open-braced form) (natural protein)”, which stoichiometry N is on record?
Answer: 2
